In the experiment the target is T1, GST-Dvl2PDZ fusion protein (human, UniProt O14641 248-364).
T1 construct: range 248-364; Made with the pGEX E. coli expression system; also called GST-PDZ fusion protein; not shown: glutathione S-transferase (GST) encoded by plasmid pGEX
T1 sequence (looked up): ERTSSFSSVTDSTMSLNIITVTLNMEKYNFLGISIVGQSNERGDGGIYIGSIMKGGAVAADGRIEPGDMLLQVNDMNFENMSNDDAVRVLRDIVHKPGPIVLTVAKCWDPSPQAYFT
The experiment can be described thus: phage display selection on GST-Dvl2PDZ. As to the method: The libraries were cycled through rounds of binding selection with a GST-Dvl2PDZ fusion protein coated on 96-well Maxisorp immunoplates as the capture target. Phage were propagated in E. coli XL1-blue with M13-KO7 helper phage and 10 μM IPTG. After four rounds of binding selection, individual phage clones were analyzed in a high-throughput phage ELISA, and positive clones were subjected to DNA sequence analysis.
We used decapeptide libraries fused to the C-terminus or N-terminus of the phage coat protein. The library contained NNK degenerate codons that encoded all 20 natural amino acids. The possible occurrence of amber stop codons in the degenerate codon also provided for the display of shorter peptides for the C-terminal library. Each library was cycled through four rounds of binding selection with immobilized GST-Dvl2PDZ fusion protein as the capture target.

Consider 63 molecules from patent publication US20100136580A1 (Genentech, published 2010).

B1: SEQ ID NO 10 (peptide)
peptide: YWTRTFYGFF
As to B1, the binding result was “binds”.

B2: SEQ ID NO 27 (peptide)
peptide: NRIPCLGGW
B2: the binding result was “binds”.

B3: SEQ ID NO 150 (peptide)
peptide: MMWIDGPLAS
Regarding B3, the binding result was “binds”.

B4: SEQ ID NO 13 (peptide)
peptide: FWIYKYYGRF
Turning to B4, the binding result is listed as “binds”.

B5: SEQ ID NO 154 (peptide)
peptide: LTEIWIDGWP
With B5, the binding result is “binds”.

B6: SEQ ID NO 131 (peptide)
peptide: LQLLWSDIPG
With B6, the binding result is reported as “binds”.

B7: SEQ ID NO 156 (peptide)
peptide: PEVWIDGPESG
Turning to B7, the binding result is “binds”.

B8: SEQ ID NO 18 (peptide)
peptide: TSFLKGYGWL
For the molecule B8, the binding result is “binds”.

B9: SEQ ID NO 23 (peptide)
peptide: TWRVLGWF
With B9, the binding result is “binds”.

B10: SEQ ID NO 130 (peptide)
peptide: GLVLLWDDFP
Regarding B10, the binding result is given as “binds”.

B11: SEQ ID NO 5 (peptide)
peptide: SWWNKCYGWF
In the case of B11, the binding result is recorded as “binds”.

B12: SEQ ID NO 21 (peptide)
peptide: STRHYRTWWF
For B12, the binding result is “binds”.

B13: SEQ ID NO 28 (peptide)
peptide: SPRFTFLGWF
As for B13, the binding result is listed as “binds”.

B14: SEQ ID NO 151 (peptide)
peptide: GEMWVDGPCL
For the molecule B14, the binding result is “binds”.

B15: SEQ ID NO 140 (peptide)
peptide: SIVLWSDIPS
Take B15: the binding result is on record as “binds”.

B16: SEQ ID NO 25 (peptide)
peptide: YTFFGWF
Turning to B16, the binding result is listed as “binds”.

B17: SEQ ID NO 12 (peptide)
peptide: TSWCKWYGWL
Regarding B17, the binding result is recorded as “binds”.

B18: SEQ ID NO 22 (peptide)
peptide: NVFRFFGWL
Take B18: the binding result was “binds”.

B19: SEQ ID NO 165 (peptide)
peptide: QTIWKDYGII
B19: the binding result is “binds”.

B20: SEQ ID NO 15 (peptide)
peptide: AVRWLFLGWF
Consider B20, for which the binding result was “binds”.

B21: SEQ ID NO 29 (peptide)
peptide: RIVSFFYGWL
B21: the binding result is on record as “binds”.

B22: SEQ ID NO 147 (peptide)
peptide: TWIDGPYLLQ
With B22, the binding result is listed as “binds”.

B23: SEQ ID NO 137 (peptide)
peptide: WVMLWSDLPA
B23: the binding result is listed as “binds”.

B24: SEQ ID NO 136 (peptide)
peptide: QLVELWSDIP
In the case of B24, the binding result is recorded as “binds”.

B25: SEQ ID NO 142 (peptide)
peptide: RRMLWSDIPG
Consider B25, for which the binding result is on record as “binds”.

B26: SEQ ID NO 160 (peptide)
peptide: AEQWIDGPHL
For B26, the binding result is on record as “binds”.

B27: SEQ ID NO 30 (peptide)
peptide: KFLGWF
Consider B27, for which the binding result is reported as “binds”.

B28: SEQ ID NO 16 (peptide)
peptide: RSGHRFLGWF
For B28, the binding result is “binds”.

B29: SEQ ID NO 32 (peptide)
peptide: TPLYNYFGGL
As to B29, the binding result is given as “binds”.

B30: SEQ ID NO 133 (peptide)
peptide: WTNVLWTDIP
As for B30, the binding result is on record as “binds”.

B31: SEQ ID NO 148 (peptide)
peptide: VWGDSFEGRP
As for B31, the binding result is given as “binds”.

B32: SEQ ID NO 153 (peptide)
peptide: ETWIDGPMYT
With B32, the binding result is listed as “binds”.

B33: SEQ ID NO 145 (peptide)
peptide: NLERWSDIPM
For the molecule B33, the binding result is on record as “binds”.

B34: SEQ ID NO 161 (peptide)
peptide: TTEVWVDWPM
For B34, the binding result is “binds”.

B35: SEQ ID NO 132 (peptide)
peptide: EMDLLWTDIP
Take B35: the binding result is reported as “binds”.

B36: SEQ ID NO 17 (peptide)
peptide: SWKLLGFF
B36: the binding result is reported as “binds”.

B37: SEQ ID NO 157 (peptide)
peptide: NEVWIDGPGQ
In the case of B37, the binding result is “binds”.

B38: SEQ ID NO 159 (peptide)
peptide: NEVWIDGPGI
Regarding B38, the binding result is on record as “binds”.

B39: SEQ ID NO 24 (peptide)
peptide: NWKWYGFF
Regarding B39, the binding result is recorded as “binds”.

B40: SEQ ID NO 162 (peptide)
peptide: GEMWVDGPCL
For B40, the binding result is recorded as “binds”.

B41: SEQ ID NO 14 (peptide)
peptide: DRIRFLGWF
Take B41: the binding result is on record as “binds”.

B42: SEQ ID NO 26 (peptide)
peptide: SHFKFFGWF
Turning to B42, the binding result was “binds”.

B43: SEQ ID NO 31 (peptide)
peptide: YFFYGWF
For the molecule B43, the binding result is “binds”.

B44: SEQ ID NO 20 (peptide)
peptide: LLFLKYYGWL
Turning to B44, the binding result is given as “binds”.

B45: SEQ ID NO 144 (peptide)
peptide: EMDLLWTDIP
Take B45: the binding result is “binds”.

B46: SEQ ID NO 146 (peptide)
peptide: SLLTIWSDIP
Consider B46, for which the binding result is on record as “binds”.

B47: SEQ ID NO 164 (peptide)
peptide: AEVWVDGPYI
Turning to B47, the binding result is reported as “binds”.

B48: SEQ ID NO 8 (peptide)
peptide: TSSWKWYGWL
For B48, the binding result is “binds”.

B49: SEQ ID NO 9 (peptide)
peptide: PRIFKDYGMF
For the molecule B49, the binding result was “binds”.

B50: SEQ ID NO 141 (peptide)
peptide: EVLWSDFPPM
Regarding B50, the binding result was “binds”.

B51: SEQ ID NO 143 (peptide)
peptide: GLVLLWTDIP
As to B51, the binding result is reported as “binds”.

B52: SEQ ID NO 11 (peptide)
peptide: NRWRLLGWF
With B52, the binding result is reported as “binds”.

B53: SEQ ID NO 152 (peptide)
peptide: ERWIDYGYIL
As to B53, the binding result is on record as “binds”.

B54: SEQ ID NO 149 (peptide)
peptide: PEVWIDGPEI
As for B54, the binding result is given as “binds”.

B55: SEQ ID NO 19 (peptide)
peptide: SISYWFYGWL
For B55, the binding result is “binds”.

B56: SEQ ID NO 135 (peptide)
peptide: SIVLWSDIPS
Turning to B56, the binding result is reported as “binds”.

B57: SEQ ID NO 166 (peptide)
peptide: TIWWDYGAI
Take B57: the binding result was “binds”.

B58: SEQ ID NO 6 (peptide)
peptide: NKRYTVLGWF
In the case of B58, the binding result is given as “binds”.

B59: SEQ ID NO 134 (peptide)
peptide: ELWIDGPHVM
Turning to B59, the binding result is recorded as “binds”.

B60: SEQ ID NO 138 (peptide)
peptide: EMITLWSDLP
Consider B60, for which the binding result was “binds”.

B61: SEQ ID NO 139 (peptide)
peptide: WVMLWSDLPA
In the case of B61, the binding result was “binds”.

B62: SEQ ID NO 7 (peptide)
peptide: IVRWTLLGIF
For the molecule B62, the binding result is recorded as “binds”.

B63: SEQ ID NO 158 (peptide)
peptide: VPTWIDGPCVD
B63: the binding result was “binds”.
